Experimental data reported in US6972319B1, “Pituitary adenylate cyclase activating peptide (PACAP)receptor 3 (R3) agonists and their pharmacological methods of use” (priority 1999, dated 2005).
No end group written: not given here.

T1: PACAP-R3 (human, UniProt P41587 24-438)
T1 sequence (looked up): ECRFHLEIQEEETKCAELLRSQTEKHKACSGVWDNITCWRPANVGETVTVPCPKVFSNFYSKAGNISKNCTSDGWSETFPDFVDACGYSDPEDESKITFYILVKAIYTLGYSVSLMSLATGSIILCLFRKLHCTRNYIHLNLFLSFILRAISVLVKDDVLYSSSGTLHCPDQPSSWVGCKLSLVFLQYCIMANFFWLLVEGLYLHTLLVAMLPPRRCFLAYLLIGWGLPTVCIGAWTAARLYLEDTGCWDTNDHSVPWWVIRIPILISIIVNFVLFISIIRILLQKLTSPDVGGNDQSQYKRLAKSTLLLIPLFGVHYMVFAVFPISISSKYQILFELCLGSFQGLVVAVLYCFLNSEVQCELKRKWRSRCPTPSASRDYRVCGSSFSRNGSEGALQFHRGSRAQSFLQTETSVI


target: T1, PACAP-R3; assay: cell-based or functional assay; settings: not given

Row | R3 EC50, nM (cAMP SPA) [nM] | R3 Selectivity [ratio] | Molecule
1 | 1.6 | > 80 | HSDAVFTDNYTRLRKQMARKKYLNSIQNRI [rR3P187]
2 | 0.7 | 30 | HSDGIFTDSYSRYRKQMAVEKYLAAVL-NH2 [PAC20]
3 | 1.6 | 70 | HSDAVFTDNYTRLRKQMARKKYLNSIKNRI [rR3P177]
4 | 0.37 | 30 | HSDAVFTDNYTRLRKQMAAKKYLNSIQNRI [rR3P184]
5 | 3.2 | 90 | HSDAVFTDNYTRLRKQMARKKYLNSIPNRI [rR3P182]
6 | 5.1 | 50 | HSDAVFTDNYTRLRKQMAKKKYLNSIPNRI [rR3P181]
7 | 0.6 | 60 | HSDAVFTDNYTRLRKQMARKKYLNSIRNRI [rR3P192]
8 | 2.7 | > 80 | HSDAVFTDNYTRLRKQMAKKKYLNSIRNRI [rR3P191]
9 | 2.2 | 100 | HSDAVFTDNYTRLRKQMAGKKYLNSIRNRI [rR3P190]
10 | 0.24 | 10 | HSDGIFTDSYSRYRKQMAVKEYLAAVL-NH2 [PAC21]
11 | 1.6 | 44 | HSDAVFTDNYTRLRKQMAKKKYLNSIQNRI [rR3P186]
12 | 140 | 0.1 | HSDGIFTDSYKRYRKQMAVKKYLAAVL-NH2 [PAC11]
13 | 0.3 | 1 | HSDGIFTDSYSRYRKQMAVKKYLAAKL-NH2 [PAC26]
14 | 2.2 | 70 | HSDAVFTDNYTRLRKQMASKKYLNSIQNRI [rR3P188]
15 | 0.75 | 110 | HSDAVFTDNYTRLRKQMASKKYLNSIKNRI [rR3P178]
16 | 5.4 | > 30 | HSDAVFTDNYTRLRKQMASKKYLNSIPNRI [rR3P183]
17 | 0.2 | 1.5 | HSDGIFTDSYSRYRKQMAVKKYLKAVL-NH2 [PAC24]
18 | 3 | 50 | HSDGIFTDSYSEYRKQMAVKKYLAAVL-NH2 [PAC12]
19 | 0.2 | 1 | HSDGIFTDSYSRYRKKMAVKKYLAAVL-NH2 [PAC16]

Row | R3 EC50, nM (cAMP SPA) [nM] | R3 Selectivity [ratio] | Molecule
20 | 0.5 | 6 | HSDGIFTDSYSRKRKQMAVKKYLAAVL-NH2 [PAC13]
21 | 27 | 4 | HSDGIFTDSKSRYRKQMAVKKYLAAVL-NH2 [PAC10]
22 | 0.04 | 3 | HSDGIFTDSYSRYRKQMAVKKYLAKVL-NH2 [PAC25]
23 | 2 | 150 | HSDAVFTDNYTRLRKQMAKKKYLNSIKNRI [rR3P176]
24 | 2.2 | 180 | HSDAVFTDNYTRLRKQMAGKKYLNSIKNRI [rR3P175]
25 | 13 | 13 | HSDGIFTDSYSRYRKQMAVKKYKAAVL-NH2 [PAC23]
26 | 0.4 | 20 | HSDGIFTDSYSRYRKQMAKKKYLAAVL-NH2 [PAC19]
27 | 0.04 | 30 | HSDAVFTDNYTRLRKQMAAKKYLNSIRNRI [rR3P189]
28 | 6.7 | > 20 | HSDAVFTDNYTRLRKQMAGKKYLNSIPNRI [rR3P180]
29 | 15 | 0.1 | HSDGIFTDSYSRYRKQMAVKKKLAAVL-NH2 [PAC22]
30 | 1.5 | 150 | HSDAVFTDNYTRLRKQMAAKKYLNSIPNRI [rR3P179]
31 | 1.9 | 110 | HSDAVFTDNYTRLRKQMASKKYLNSIRNRI [rR3P193]
32 | 0.2 | 90 | HSDAVFTDNYTRLRKQMAAKKYLNSIKNRI [rR3P174]
33 | 1.6 | 70 | HSDGIFTDSYSRYEKQMAVKKYLAAVL-NH2 [PAC14]
34 | 4.5 | 40 | HSDAVFTDNYTRLRKQMAGKKYLNSIQNRI [rR3P185]
35 | 1.1 | 1.4 | HSDGIFTDSYSRYRKQMAVKKYLAAVK-NH2 [PAC27]
36 | 0.15 | 1.6 | HSDGIFTDSYSRYRKQKAVKKYLAAVL-NH2 [PAC17]
37 | 0.7 | 1 | HSDGIFTDKYSRYRKQMAVKKYLAAVL-NH2 [PAC9]
38 | 0.2 | 12 | HSDGIFTDSYSRYREQMAVKKYLAAVL-NH2 [PAC15]

test system: not listed separately; assay: Intraperitoneal glucose tolerance test (IPGTT), plasma glucose in rats; format: in vivo, Wistar rats; settings: 1 nmole/kg s.c., rats, FIG. 7
Description: Wistar rats are fasted overnight and then anesthetized with pentobarbital. The rats were eye-bled (zero time) and the peptide (in 1% human albumin) was injected into the tail vein. Five minutes later, 1 g/kg of glucose (in saline) was injected intraperitoneally, and the rats were eye-bled after 15, 30 and 60 minutes. Plasma glucose levels were determined using the Technicon Axon autoanalyzer, Bayer Diagnosics division of Bayer Corporation, Tarrytown N.Y., operated using Method No. SM4-2143F90“Glucose”.
Wistar rats were fasted overnight and then anesthetized with Pentobarbital. The rats were eye-bled (zero time) and the peptide (in 1% human albumin) was injected subcutaneously. Five minutes later, 1 g/kg of glucose (in saline) was injected intraperitoneally, and the rats were eye-bled after 30 minutes.
Plasma glucose: Data are expressed as % of vehicle of plasma glucose area under the curve after IPGTT (1 g/kg glucose) after treatment with 1 nmol/kg dose of the peptide. […] The present inventors have shown for the first time that this is because the effects of R2 and R3 on glucose tend to cancel each other out. […] Therefore, R3-selectivity appears to be a desirable attribute for medicaments which are to be employed in achieving blood glucose reduction, for treatment of type 2 diabetes.

Row | Molecule | elevation of plasma glucose 30 minutes after IPGTT
39 | HAEGTFTSDV SSYLEGQAAK EFIAWLVKGR-NH2 (HAEGTFTSDVSSYLEGQAAKEFIAWLVKGR-NH2) [GLP-1, incretin hormone released from the intestinal L-cell, a known insulin secretagogue, reference compound] | enhance glucose disposal
